Earlier results as cited in PMC8810291.

Target: FNIP1 (Homo sapiens) (UniProt Q8TF40)
Sequence (Q8TF40 whole entry): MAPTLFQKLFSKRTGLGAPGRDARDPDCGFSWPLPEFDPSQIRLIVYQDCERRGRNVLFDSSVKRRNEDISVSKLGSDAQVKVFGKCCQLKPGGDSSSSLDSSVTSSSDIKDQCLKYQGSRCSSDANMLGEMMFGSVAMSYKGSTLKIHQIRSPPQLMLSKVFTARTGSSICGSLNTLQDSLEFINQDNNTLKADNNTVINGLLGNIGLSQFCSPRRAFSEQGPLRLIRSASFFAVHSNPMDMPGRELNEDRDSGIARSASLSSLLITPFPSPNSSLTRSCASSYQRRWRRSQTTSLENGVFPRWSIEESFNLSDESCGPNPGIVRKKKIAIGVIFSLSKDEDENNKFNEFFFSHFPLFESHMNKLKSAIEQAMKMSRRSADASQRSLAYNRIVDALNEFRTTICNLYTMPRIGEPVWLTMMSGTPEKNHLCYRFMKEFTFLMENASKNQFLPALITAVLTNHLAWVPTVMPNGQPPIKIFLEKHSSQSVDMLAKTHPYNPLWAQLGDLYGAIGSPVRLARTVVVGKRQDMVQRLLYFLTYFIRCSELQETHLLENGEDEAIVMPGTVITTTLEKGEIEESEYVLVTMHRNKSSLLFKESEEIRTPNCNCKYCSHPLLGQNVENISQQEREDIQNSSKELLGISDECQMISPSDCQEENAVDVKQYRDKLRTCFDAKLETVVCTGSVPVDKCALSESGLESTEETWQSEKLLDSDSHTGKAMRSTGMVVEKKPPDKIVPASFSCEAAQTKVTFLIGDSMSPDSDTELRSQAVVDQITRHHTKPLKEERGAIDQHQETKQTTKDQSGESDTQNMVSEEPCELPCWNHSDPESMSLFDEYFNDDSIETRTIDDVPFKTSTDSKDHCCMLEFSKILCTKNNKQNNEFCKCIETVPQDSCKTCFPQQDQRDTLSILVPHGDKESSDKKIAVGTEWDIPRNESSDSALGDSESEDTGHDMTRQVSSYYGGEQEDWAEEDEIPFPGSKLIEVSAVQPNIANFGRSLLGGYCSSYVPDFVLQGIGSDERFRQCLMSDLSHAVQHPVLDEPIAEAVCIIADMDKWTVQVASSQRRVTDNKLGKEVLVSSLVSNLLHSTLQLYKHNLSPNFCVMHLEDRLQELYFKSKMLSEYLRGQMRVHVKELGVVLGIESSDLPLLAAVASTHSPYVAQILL

Chain of FEM1B (Q9UK73 whole entry): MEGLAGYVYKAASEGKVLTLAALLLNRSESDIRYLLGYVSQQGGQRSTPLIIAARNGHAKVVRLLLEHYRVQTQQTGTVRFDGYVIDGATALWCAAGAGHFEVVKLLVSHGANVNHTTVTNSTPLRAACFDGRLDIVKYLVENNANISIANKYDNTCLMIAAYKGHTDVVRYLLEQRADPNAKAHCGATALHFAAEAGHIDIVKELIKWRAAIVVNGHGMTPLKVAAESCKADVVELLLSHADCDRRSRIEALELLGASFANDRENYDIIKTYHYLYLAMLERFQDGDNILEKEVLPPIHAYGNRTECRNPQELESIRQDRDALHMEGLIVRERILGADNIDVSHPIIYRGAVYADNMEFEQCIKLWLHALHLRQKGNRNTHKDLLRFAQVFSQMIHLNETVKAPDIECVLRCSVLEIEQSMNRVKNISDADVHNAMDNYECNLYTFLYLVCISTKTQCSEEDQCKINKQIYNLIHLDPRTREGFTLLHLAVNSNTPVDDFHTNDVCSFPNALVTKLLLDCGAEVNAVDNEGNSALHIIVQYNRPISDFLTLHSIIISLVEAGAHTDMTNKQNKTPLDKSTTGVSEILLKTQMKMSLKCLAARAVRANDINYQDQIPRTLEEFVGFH

Substance: FEM1B (from UniProt Q9UK73)
- Kd: 20 nM
